{"source": "patent US20260125457A1", "about": "(Janssen / Centocor, published 2026)", "key": {"[1]": {"biological_target": "T1, CALRins5 (mutant calreticulin, 5 base pair insertion, Type 2) expressed with MPL on engineered cancer cells (UniProt P27797 18-417)", "T1 construct": "whole, on cells; On the cell surface in complex with MPL; also called OCI-M2 MPL CALRins5", "T1 sequence (looked up)": "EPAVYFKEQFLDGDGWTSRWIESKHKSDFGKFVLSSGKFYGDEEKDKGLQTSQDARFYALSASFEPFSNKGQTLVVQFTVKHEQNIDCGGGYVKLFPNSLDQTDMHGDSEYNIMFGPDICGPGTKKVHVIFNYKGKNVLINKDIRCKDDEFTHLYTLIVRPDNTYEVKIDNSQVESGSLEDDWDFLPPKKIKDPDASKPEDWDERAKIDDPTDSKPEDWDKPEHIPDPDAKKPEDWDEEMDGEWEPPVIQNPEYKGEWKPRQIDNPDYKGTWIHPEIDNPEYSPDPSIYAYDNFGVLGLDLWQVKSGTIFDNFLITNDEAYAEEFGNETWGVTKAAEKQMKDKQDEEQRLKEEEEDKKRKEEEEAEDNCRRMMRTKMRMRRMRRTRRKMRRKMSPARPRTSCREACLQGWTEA", "assay": "flow cytometry on OCI-M2 MPL CALRins5 cells, 1 h at 37 C, AF647 secondary antibody, Geometric mean", "experimental": "(§1) FIGS. 27A-27F depict binding of different CALRmutxCD3 antibodies to CALRmut-negative or CALRmut-positive cells. Flow cytometry was used to evaluate CALRmutxCD3 binding to CALRmut-negative and CALRmut-positive cancer cells in vitro. CALRmutxCD3 antibodies were tested on a panel of cell lines, engineered to express MPL and CALRmut, after 1 hour 37° C. incubation, with subsequent incubation with secondary AF647-labeled antibody. Geometric mean fluorescence intensity of AF647 was measured to determine antibody binding."}, "[2]": {"biological_target": "T1, CALRins5 (mutant calreticulin, 5 base …)", "assay": "flow cytometry on ELF-153 MPL CALRins5 cells, 1 h at 37 C, AF647 secondary antibody, Geometric mean", "experimental": "as §1"}, "[3]": {"biological_target": "T2, wild-type calreticulin (CALRwt) expressed with MPL in engineered cancer cells (UniProt P27797 18-417, limits assumed)", "T2 construct": "whole, on cells; also called OCI-M2 MPL CALRwt", "T2 sequence (looked up)": "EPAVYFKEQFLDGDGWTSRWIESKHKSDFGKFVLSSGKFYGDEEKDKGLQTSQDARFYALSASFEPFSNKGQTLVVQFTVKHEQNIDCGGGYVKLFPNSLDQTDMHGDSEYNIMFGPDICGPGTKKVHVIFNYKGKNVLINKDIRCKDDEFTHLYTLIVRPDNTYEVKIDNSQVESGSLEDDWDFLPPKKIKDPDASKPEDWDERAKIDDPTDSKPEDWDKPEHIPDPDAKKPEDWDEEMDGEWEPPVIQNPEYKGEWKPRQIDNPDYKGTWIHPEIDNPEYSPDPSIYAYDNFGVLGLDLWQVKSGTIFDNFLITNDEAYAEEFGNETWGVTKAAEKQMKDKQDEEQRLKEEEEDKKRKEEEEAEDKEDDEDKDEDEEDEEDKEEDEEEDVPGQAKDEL", "assay": "flow cytometry on OCI-M2 MPL CALRwt cells, 1 h at 37 C, AF647 secondary antibody, Geometric mean", "experimental": "as §1"}, "[4]": {"biological_target": "T2, wild-type calreticulin (CALRwt) …", "assay": "flow cytometry on ELF-153 MPL CALRwt cells, 1 h at 37 C, AF647 secondary antibody, Geometric Mean", "experimental": "as §1, with “FIGS. 21A-21F depict binding” for “FIGS. 27A-27F depict binding”, “different CALRmutxCD3 bispecific antibodies to” for “different CALRmutxCD3 antibodies to”"}, "[5]": {"biological_target": "T3, CD3 on primary human pan T cells (human, UniProt P07766 23-207)", "T3 construct": "whole, on cells; also called CD3e; CD3ε", "T3 sequence (P07766 23-207)": "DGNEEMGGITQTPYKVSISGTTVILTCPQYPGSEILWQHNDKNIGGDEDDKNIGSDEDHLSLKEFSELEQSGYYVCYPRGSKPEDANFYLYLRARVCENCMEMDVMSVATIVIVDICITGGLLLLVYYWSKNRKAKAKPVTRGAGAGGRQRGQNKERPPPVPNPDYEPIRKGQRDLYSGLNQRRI", "assay": "flow cytometry on pan CD3 T cells, 1 h at 37 C, AF647 secondary antibody, Geometric Mean", "experimental": "FIG. 22 depicts binding of different CALRmutxCD3 bispecific antibodies to pan CD3 T cells. Flow cytometry was used to evaluate CALRmutxCD3 binding to pan CD3 T cells in vitro, by 1 hour 37° C. incubation, with subsequent incubation with secondary AF647-labeled antibody. Geometric mean fluorescence intensity of AF647 was measured to determine antibody binding.\nFlow cytometry was used to evaluate the CD3 arm binding of CALRmutxCD3 antibodies listed in Table 21 to CD3+ pan T cells from healthy human donor. CALRmutxCD3 were tested after 1 hour 37° C. incubation with pan T cells."}, "[6]": {"biological_target": "T4, CALRdel52 (mutant calreticulin, 52 base pair deletion, Type 1) expressed with MPL on engineered cancer cells (UniProt P27797 18-417)", "T4 construct": "whole, on cells; On the cell surface in complex with MPL; also called OCI-M2 MPL CALRdel52", "T4 sequence (looked up)": "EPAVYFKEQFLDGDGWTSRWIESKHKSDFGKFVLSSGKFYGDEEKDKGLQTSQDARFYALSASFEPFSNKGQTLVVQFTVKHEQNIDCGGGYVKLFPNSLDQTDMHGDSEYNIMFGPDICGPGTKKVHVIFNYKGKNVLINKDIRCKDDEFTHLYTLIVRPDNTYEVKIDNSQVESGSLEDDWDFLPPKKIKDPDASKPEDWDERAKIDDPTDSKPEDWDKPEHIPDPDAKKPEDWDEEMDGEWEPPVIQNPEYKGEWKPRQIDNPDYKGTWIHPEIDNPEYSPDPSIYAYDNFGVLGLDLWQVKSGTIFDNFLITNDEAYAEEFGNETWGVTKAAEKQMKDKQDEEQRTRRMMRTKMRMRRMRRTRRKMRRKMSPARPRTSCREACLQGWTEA", "assay": "flow cytometry on OCI-M2 MPL CALRdel52 cells, 1 h at 37 C, AF647 secondary antibody, Geometric Mean", "experimental": "as §1, with “FIGS. 21A-21F depict binding” for “FIGS. 27A-27F depict binding”, “different CALRmutxCD3 bispecific antibodies to” for “different CALRmutxCD3 antibodies to”"}}}
{"binder": "C3CRB135 CALRmut x CD3 bispecific antibody (bispecific antibody, human IgG1, kappa, L234A L235A, Chain A heavy: CALRB421 heavy chain with CALRB1114 spFv at the C-terminus) heavy: EVQLLESGGGLVQPGGSLRLSCAVSGIDLSNNAISWVRQAPGKGLEYVGVIGNTGDTYYADSAKGRFTISRDSSKTTLYLQMNSLRAEDTAVYFCVRGPPSYSSSVKNIWGQGTLVTVSSASTKGPSVFPLAPSSKSTSGGTAALGCLVKDYFPEPVTVSWNSGALTSGVHTFPAVLQSSGLYSLSSVVTVPSSSLGTQTYICNVNHKPSNTKVDKKVEPKSCDKTHTCPPCPAPEAAGGPSVFLFPPKPKDTLMISRTPEVTCVVVSVSHEDPEVKFNWYVDGVEVHNAKTKPREEQYNSTYRVVSVLTVLHQDWLNGKEYKCKVSNKALPAPIEKTISKAKGQPREPQVYTLPPSREEMTKNQVSLSCAVKGFYPSDIAVEWESNGQPENNYKTTPPVLDSDGSFFLVSKLTVDKSRWQQGNVFSCSVMHEALHNRFTQKSLSLSPGKGGGGSGGGGSDIQMTQSPSTLSASVGDRVTITCQASQSLYNNKNLAWYQQKPGCAPKLLIYYASALASGVPSRFSGSGSGTEFTLTISSLQPDDFATYYCQGEFNCNSADCNSFGGGTKVEIKGGGSGGSGGCPPCGGSGGQVQLVQSGAEVKKPGASVKVSCKASGFSLSSYAMSWVRQAPGQGLEWMGVIDSGGTTYYAQKFQGRVTMTRDTSTSTVYMELSSLRSEDTAVYYCARESYAGYDYYGHPIPYGMEPWGCGTLVTVSSH light: DIQMTQSPSSVSASVGDRVTITCQSSQSVYNNNWLSWLQQKPGKAPKRLIYDASKLESGVPSRFSGSGSGTDFTLTISSVQPEDAATYYCAGGFTGNVYTFGGGTKVEIKRTVAAPSVFIFPPSDEQLKSGTASVVCLLNNFYPREAKVQWKVDNALQSGNSQESVTEQDSKDSTYSLSSTLTLSKADYEKHKVYACEVTHQGLSSPVTKSFNRGEC scFv: DIQMTQSPSSLSASVGDRVTITCRARQSIGTAIHWYQQKPGCAPKLLIKYASESISGVPSRFSGSGSGTDFTLTISSLQPEDFATYYCQQSGSWPYTFGQGTKLEIKGGGSGGSGGCPPCGGSGGEVQLVESGGGLVKPGGSLRLSCAASGFTFSRYNMNWVRQAPGKGLEWVSSISTSSNYIYYADSVKGRFTFSRDNAKNSLDLQMSGLRAEDTAIYYCTRGWGPFDYWGCGTLVTVSSEPKSSDKTHTCPPCPAPEAAGGPSVFLFPPKPKDTLMISRTPEVTCVVVSVSHEDPEVKFNWYVDGVEVHNAKTKPREEQYNSTYRVVSVLTVLHQDWLNGKEYKCKVSNKALPAPIEKTISKAKGQPREPQVYTLPPSREEMTKNQVSLWCLVKGFYPSDIAVEWESNGQPENNYKTTPPVLDSDGSFFLYSKLTVDKSRWQQGNVFSCSVMHEALHNHYTQKSLSLSPGK", "values": [{"measurement": "EC50 (read off the curve)", "setting": "[1]", "value": "~3", "unit": "nM"}, {"measurement": "EC50 (read off the curve)", "setting": "[2]", "value": "~1", "unit": "nM"}, {"measurement": "binding result", "setting": "[3]", "value": "no binding (tested: 100 nM)"}]}
{"binder": "C3CRB126 CALRmut x CD3 bispecific antibody (bispecific antibody, human IgG1, kappa, L234A L235A, Chain A heavy: CALRB1114 Fab heavy part, CD3 spFv (LH), Fc; Chain B heavy: CALRB1114) heavy 1: QVQLVQSGAEVKKPGASVKVSCKASGFSLSSYAMSWVRQAPGQGLEWMGVIDSGGTTYYAQKFQGRVTMTRDTSTSTVYMELSSLRSEDTAVYYCARESYAGYDYYGHPIPYGMEPWGQGTLVTVSSASTKGPSVFPLAPSSKSTSGGTAALGCLVKDYFPEPVTVSWNSGALTSGVHTFPAVLQSSGLYSLSSVVTVPSSSLGTQTYICNVNHKPSNTKVDKKVEPKSCGGGGSGGGGSDIQMTQSPSSLSASVGDRVTITCRARQSIGTAIHWYQQKPGCAPKLLIKYASESISGVPSRFSGSGSGTDFTLTISSLQPEDFATYYCQQSGSWPYTFGQGTKLEIKGGGSGGSGGCPPCGGSGGEVQLVESGGGLVKPGGSLRLSCAASGFTFSRYNMNWVRQAPGKGLEWVSSISTSSNYIYYADSVKGRFTFSRDNAKNSLDLQMSGLRAEDTAIYYCTRGWGPFDYWGCGTLVTVSSEPKSSDKTHTCPPCPAPEAAGGPSVFLFPPKPKDTLMISRTPEVTCVVVSVSHEDPEVKFNWYVDGVEVHNAKTKPREEQYNSTYRVVSVLTVLHQDWLNGKEYKCKVSNKALPAPIEKTISKAKGQPREPQVYTLPPSREEMTKNQVSLWCLVKGFYPSDIAVEWESNGQPENNYKTTPPVLDSDGSFFLYSKLTVDKSRWQQGNVFSCSVMHEALHNHYTQKSLSLSPGK heavy 2: QVQLVQSGAEVKKPGASVKVSCKASGFSLSSYAMSWVRQAPGQGLEWMGVIDSGGTTYYAQKFQGRVTMTRDTSTSTVYMELSSLRSEDTAVYYCARESYAGYDYYGHPIPYGMEPWGQGTLVTVSSASTKGPSVFPLAPSSKSTSGGTAALGCLVKDYFPEPVTVSWNSGALTSGVHTFPAVLQSSGLYSLSSVVTVPSSSLGTQTYICNVNHKPSNTKVDKKVEPKSCDKTHTCPPCPAPEAAGGPSVFLFPPKPKDTLMISRTPEVTCVVVSVSHEDPEVKFNWYVDGVEVHNAKTKPREEQYNSTYRVVSVLTVLHQDWLNGKEYKCKVSNKALPAPIEKTISKAKGQPREPQVYTLPPSREEMTKNQVSLSCAVKGFYPSDIAVEWESNGQPENNYKTTPPVLDSDGSFFLVSKLTVDKSRWQQGNVFSCSVMHEALHNRFTQKSLSLSPGK light: DIQMTQSPSTLSASVGDRVTITCQASQSLYNNKNLAWYQQKPGKAPKLLIYYASALASGVPSRFSGSGSGTEFTLTISSLQPDDFATYYCQGEFNCNSADCNSFGGGTKVEIKRTVAAPSVFIFPPSDEQLKSGTASVVCLLNNFYPREAKVQWKVDNALQSGNSQESVTEQDSKDSTYSLSSTLTLSKADYEKHKVYACEVTHQGLSSPVTKSFNRGEC", "values": [{"measurement": "binding result", "setting": "[4]", "value": "no binding (tested: 100 nM)"}, {"measurement": "binding result", "setting": "[5]", "value": "binds"}, {"measurement": "EC50 (read off the curve)", "setting": "[6]", "value": "~1", "unit": "nM"}]}
